Experimental data taken from patent publication US20230074793A1.

Target: CTLA4 (cytotoxic T-lymphocyte-associated protein 4) (human) (UniProt P16410)
Experiment: cell-based or functional assay

Chain of CTLA4 (cytotoxic T-lymphocyte-associated protein 4) (human) (P16410 36-223): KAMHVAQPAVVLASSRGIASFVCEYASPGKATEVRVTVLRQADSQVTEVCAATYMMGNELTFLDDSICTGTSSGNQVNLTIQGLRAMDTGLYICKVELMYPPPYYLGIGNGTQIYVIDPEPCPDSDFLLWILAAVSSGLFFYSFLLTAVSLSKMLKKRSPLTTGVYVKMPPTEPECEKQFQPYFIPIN

In the case of XmAb®20717 (bispecific antibody), the IL-2 secretion (ELISA of culture supernatants) from SEB-stimulated human PBMC treated 24 hours, versus anti-RSV isotype-control bivalent antibody XENP15074 is reported as 4.1 fold, the IL-2 secretion (ELISA) from SEB-stimulated human PBMC, versus a mixture of the monovalent component antibodies XENP20111 (anti-PD1 scFv-Fc) and XENP20059 (anti-CTLA4 Fab-Fc) is reported as 1.6 fold and the IL-2 secretion (ELISA) from SEB-stimulated human PBMC, versus the bivalent anti-PD1 antibody XENP16432 is reported as 1.5 fold.
